Assay results: patent US5763590A (Vertex Pharmaceuticals, Inc., priority 1994, dated 1998)
Where two headings read alike, the source gives them in different places. Each block holds one molecule with its values, some of them ahead of it.

Key:
[1] = cited from earlier work
[2] = molecular target: Suc-Ala-Ala-Pro-Phe-pNA
[3] = molecular target: Suc-Ala-Leu-Pro-Phe-pNA
[4] = molecular target: Suc-Ala-Val-Pro-Phe-pNA
[5] = molecular target: Suc-Ala-Phe-Pro-Phe-pNA
[6] = molecular target: T1, hFKBP52 (Homo sapiens, UniProt Q02790); experiment: Inhibition of peptidyl-prolyl cis-trans isomerase (PPIase) activity of hFKBP52; type: biochemical
T1 construct: The hFKBP52 open reading frame (ORF) was expressed in E. coli with a vector (pQE8, Qiagen Inc.); histidine tag (pQE8) (N, cleaved yes); Factor Xa cleavage site (Ile-Glu-Gly-Arg) (N, cleaved yes); made in house; host or cells: E. coli XA90
T1 sequence (Q02790 1-459): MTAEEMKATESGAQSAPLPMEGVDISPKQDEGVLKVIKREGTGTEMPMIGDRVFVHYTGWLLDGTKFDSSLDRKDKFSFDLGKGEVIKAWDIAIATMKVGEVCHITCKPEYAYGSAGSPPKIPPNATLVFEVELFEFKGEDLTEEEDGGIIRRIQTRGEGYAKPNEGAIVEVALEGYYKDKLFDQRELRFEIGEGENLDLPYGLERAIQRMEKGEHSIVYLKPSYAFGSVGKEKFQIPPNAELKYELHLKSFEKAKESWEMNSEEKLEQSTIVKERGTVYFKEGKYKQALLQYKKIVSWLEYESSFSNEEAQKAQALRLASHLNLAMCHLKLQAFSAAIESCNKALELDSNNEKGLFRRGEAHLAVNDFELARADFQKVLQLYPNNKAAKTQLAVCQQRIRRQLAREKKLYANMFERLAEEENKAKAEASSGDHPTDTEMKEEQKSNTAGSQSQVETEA
Procedure: The peptidyl-prolyl isomerization rate was determined by coupling isomerization of a prolyl-containing peptide to trans substrate hydrolysis by chymotrypsin (Fisher, G., et al., Nature 337:476-478 (1989)). The assay was performed according to Harrison and Stein (Biochem., 29:3813-3816 (1980) with modifications described by Park S. T., et al., J. Biol. Chem. 267:3316-3324 (1992). The tetrapeptide substrate succinyl-Ala-P1-Pro-Phe-p-nitroanilide, where P1=Leu, was used to determine specific activity and inhibition constants, and a series of peptide substrates with related structures (P1=Phe, Val, Ala, Gly, Glu or Lys) was used to determine substrate specificity. Protein concentrations of rhFKBP52 stock solutions were determined by a Coomassie Blue binding assay (Bradford, M., Anal. Biochem., 72:248-254 (1976)). FKBP52 (60 nM final) was added to a reaction mixture containing substrate (27 μM final) in 0.1M Tris-HCl, pH 7.8 at 15° C., and the solution was incubated in a 2 ml cuvette for 5 min at 15° C. […] For measurement of substrate specificity, the final FKBP52 concentration was adjusted so the Kobs was at least four-fold higher than knon-enz. Inhibition data were fit to an equation for tight-binding competitive inhibitors using KineTic™ software (BioKin, Ltd.) running on a Macintosh IIcx computer.

[7] = PPIase catalysis of the isomerization of tetrapeptide substrates (chymotrypsin-coupled assay); type: biochemical
Procedure: As described in detail in Example 2, the assay of Harrison and Stein (Harrison, R. K. and R. L. Stein, Biochemistry 29:3813-3816 (1990)) can be used to measure peptidyl prolyl cis-trans isomerization (PPIase) activity of FKBP52.
The peptidyl-prolyl isomerization rate was determined by coupling isomerization of a prolyl-containing peptide to trans substrate hydrolysis by chymotrypsin (Fisher, G., et al., Nature 337:476-478 (1989)). The assay was performed according to Harrison and Stein (Biochem., 29:3813-3816 ([…]) with modifications described by Park S. T., et al., J. Biol. Chem. 267:3316-3324 (1992). The tetrapeptide substrate succinyl-Ala-P1-Pro-Phe-p-nitroanilide, where P1=Leu, was used to determine specific activity and inhibition constants, and a series of peptide substrates with related structures (P1=Phe, Val, Ala, Gly, Glu or Lys) was used to determine substrate specificity. Protein concentrations of rhFKBP52 stock solutions were determined by a Coomassie Blue binding assay (Bradford, M., Anal. Biochem., 72:248-254 (1976)). FKBP52 (60 nM final) was added to a reaction mixture containing substrate (27 μM final) in 0.1M Tris-HCl, pH 7.8 at 15° C., and the solution was incubated in a 2 ml cuvette for 5 min at 15° C. (950 μl final) before adding chymotrypsin (100 μg ml^-1 final) to start reaction. For measurement of substrate specificity, the final FKBP52 concentration was adjusted so the Kobs was at least four-fold higher than knon-enz. Inhibition data were fit to an equation for tight-binding competitive inhibitors using KineTic™ software (BioKin, Ltd.) running on a Macintosh IIcx computer.

Molecule: hFKBP12: recombinant human FK506 binding protein of Mr about 11,800, used as comparator PPIase
Specific activity at 15° C. ([1]; Substrate P1 = Ala, data from Park et al. 1992): 310000 M⁻¹ s⁻¹ | Specific activity at 15° C. ([1]; Substrate P1 = Leu (Suc-Ala-Leu-Pro-Phe-pNA), data from Park et al. 1992, listed as FKBP12): 4.3e+06 M⁻¹ s⁻¹ | Specific activity at 15° C. ([1]; Substrate P1 = Leu (Suc-Ala-Leu-Pro-Phe-pNA), data from Park et al. 1992): 4.3e+06 M⁻¹ s⁻¹ | Specific activity at 15° C. ([1]; Substrate P1 = Phe, data from Park et al. 1992): 2e+06 M⁻¹ s⁻¹ | Specific activity at 15° C. ([1]; Substrate P1 = Val, data from Park et al. 1992): 900000 M⁻¹ s⁻¹

Specific activity at 15° C. (PPIase, chymotrypsin-coupled assay) [2]: 26000 M⁻¹ s⁻¹ | Specific activity at 15° C. (PPIase, chymotrypsin-coupled assay) [3]: 390000 M⁻¹ s⁻¹ | Specific activity at 15° C. (PPIase, chymotrypsin-coupled assay) [4]: 39000 M⁻¹ s⁻¹ | Specific activity at 15° C. (PPIase, chymotrypsin-coupled assay) [5]: 73000 M⁻¹ s⁻¹
Molecule: recombinant human FKBP52 (Mr 52,000 FK506 binding protein) (enzyme)

Molecule: CO[C@H]1C[C@@H]2CC[C@@H](C)[C@@](O)(O2)C(=O)C(=O)N2CCCC[C@H]2C(=O)O[C@H]([C@H](C)C[C@@H]2CC[C@@H](O)[C@H](OC)C2)CC(=O)[C@H](C)/C=C(\C)[C@@H](O)[C@@H](OC)C(=O)[C@H](C)C[C@H](C)/C=C/C=C/C=C/1C [rapamycin]
Ki [6]: 8 nM

B1: hFKBP52: Mr 52,000 FK506 binding protein; recombinant human form expressed in E. coli, 459 residues (SEQ ID NO: 26) (protein)
chain: MTAEEMKATESGAQSAPLPMEGVDISPKQDEGVLKVIKREGTGTEMPMIGDRVFVHYTGWLLDGTKFDSSLDRKDKFSFDLGKGEVIKAWDIAIATMKVGEVCHITCKPEYAYGSAGSPPKIPPNATLVFEVELFEFKGEDLTEEEDGGIIRRIQTRGEGYAKPNEGAIVEVALEGYYKDKLFDQRELRFEIGEGENLDLPYGLERAIQRMEKGEHSIVYLKPSYAFGSVGKEKFQIPPNAELKYELHLKSFEKAKESWEMNSEEKLEQSTIVKERGTVYFKEGKYKQALLQYKKIVSWLEYESSFSNEEAQKAQALRLASHLNLAMCHLKLQAFSAAIESCNKALELDSNNEKGLFRRGEAHLAVNDFELARADFQKVLQLYPNNKAAKTQLAVCQQRIRRQLAREKKLYANMFERLAEEENKAKAEASSGDHPTDTEMKEEQKSNTAGSQSQVETEA
Specific activity at 15° C. ([7]; Substrate P1 = Ala): 26000 M⁻¹ s⁻¹ | Specific activity at 15° C. ([7]; Substrate P1 = Leu (Suc-Ala-Leu-Pro-Phe-pNA)): 390000 M⁻¹ s⁻¹ | Specific activity at 15° C. ([7]; Substrate P1 = Leu (Suc-Ala-Leu-Pro-Phe-pNA), listed as FKBP52): 390000 M⁻¹ s⁻¹ | Specific activity at 15° C. ([7]; Substrate P1 = Phe): 73000 M⁻¹ s⁻¹ | Specific activity at 15° C. ([7]; Substrate P1 = Val): 39000 M⁻¹ s⁻¹ | Specific activity relative to recombinant human FKBP12 (rhFKBP12) ([7]; substrate Suc-Ala-Leu-Pro-Phe-pNA, 15° C.): approximately 10%
